Data as given in the supplement of paper PMC11246515.
± gives the standard deviation of the averaged measurements.

Experiment: total protein half-life in vivo (active degradation + dilution); higher = more stable protein
[1] = E. coli NCM3722 delta-clpP delta-lon delta-hslV, growth: N-lim chemostat, doubling time 6 h
[2] = E. coli NCM3722 delta-clpP, growth: N-lim chemostat, doubling time 6 h
[3] = E. coli NCM3722 delta-hslV, growth: N-lim chemostat, doubling time 6 h
[4] = E. coli NCM3722 delta-lon, growth: N-lim chemostat, doubling time 6 h
[5] = E. coli NCM3722 delta-smpB, growth: N-lim chemostat, doubling time 6 h
[6] = wild type E. coli NCM3722, growth: C-lim chemostat, doubling time 3 h
[7] = wild type E. coli NCM3722, growth: C-lim chemostat, doubling time 6 h
[8] = wild type E. coli NCM3722, growth: C-lim chemostat, doubling time 12 h
[9] = wild type E. coli NCM3722, growth: N-lim chemostat, doubling time 6 h
[10] = wild type E. coli NCM3722, growth: N-lim chemostat, doubling time 12 h
[11] = wild type E. coli NCM3722, growth: P-lim chemostat, doubling time 6 h
[12] = wild type E. coli NCM3722, growth: P-lim chemostat, doubling time 12 h

| Sequence | total protein half-life in vivo [1] [h] | total protein half-life in vivo [2] [h] | total protein half-life in vivo [3] [h] | total protein half-life in vivo [4] [h] | total protein half-life in vivo [5] [h] | total protein half-life in vivo [6] [h] | total protein half-life in vivo [7] [h] | total protein half-life in vivo [8] [h] | total protein half-life in vivo [9] [h] | total protein half-life in vivo [10] [h] | total protein half-life in vivo [11] [h] | total protein half-life in vivo [12] [h] |
| --- | --- | --- | --- | --- | --- | --- | --- | --- | --- | --- | --- | --- |
| MTTNYIFVTGGVVSSLGKGIAAASLAAILEARGLNVTIMKLDPYINVDPGTMSPIQHGEVFVTEDGAETDLDLGHYERFIRTKMSRRNNFTTGRIYSDVLRKERRGDYLGATVQVIPHITNAIKERVLEGGEGHDVVLVEIGGTVGDIESLPFLEAIRQMAVEIGREHTLFMHLTLVPYMAASGEVKTKPTQHSVKELLSIGIQPDILICRSDRAVPANERAKIALFCNVPEKAVISLKDVDSIYKIPGLLKSQGLDDYICKRFSLNCPEANLSEWEQVIFEEANPVSEVTIGMVGKYIELPDAYKSVIEALKHGGLKNRVSVNIKLIDSQDVETRGVEILKGLDAILVPGGFGYRGVEGMITTARFARENNIPYLGICLGMQVALIDYARHVANMENANSTEFVPDCKYPVVALITEWRDENGNVEVRSEKSDLGGTMRLGAQQCQLVDDSLVRQLYNAPTIVERHRHRYEVNNMLLKQIEDAGLRVAGRSGDDQLVEIIEVPNHPWFVACQFHPEFTSTPRDGHPLFAGFVKAASEFQKRQAK [P0A7E5] | 6.37 ± 0.47 | 5.64 ± 0.39 | 5.16 ± 0.13 | 5.75 ± 0.15 | 5.11 ± 0.71 | 3.06 ± 0.25 | 6.11 ± 0.39 | 12.3 ± 1.2 | 5.2 ± 0.22 | 9.4 ± 0.35 | 6.161 ± 0.058 | 13.1 ± 0.8 |
| MNRIEHYHDWLRDAHAMEKQAESMLESMASRIDNYPELRARIEQHLSETKNQIVQLETILDRNDISRSVIKDSMSKMAALGQSIGGIFPSDEIVKGSISGYVFEQFEIACYTSLLAAAKNAGDTASIPTIEAILNEEKQMADWLIQNIPQTTEKFLIRSETDGVEAKK | 4.867 ± 0.043 | 4.24 ± 0.64 | 6.68 ± 0.67 | 4.5 ± 0.39 | 3.94 ± 0.3 | 3.17 ± 0.17 | 5.22 ± 0.1 | 10.5 ± 1.5 | 4.14 ± 0.32 | 6.67 ± 0.1 | 5.2 ± 0.7 | 11.1 ± 0.76 |
| MQGTKIRLLAGGLLMMATAGYVQADALQPDPAWQQGTLSNGLQWQVLTTPQRPSDRVEIRLLVNTGSLAESTQQSGYSHAIPRIALTQSGGLDAAQARSLWQQGIDPKRPMPPVIVSYDTTLFNLSLPNNRNDLLKEALSYLANATGKLTITPETINHALQSQDMVATWPADTKEGWWRYRLKGSTLLGHDPADPLKQPVEAEKIKDFYQKWYTPDAMTLLVVGNVDARSVVDQINKTFGELKGKRETPAPVPTLSPLRAEAVSIMTDAVRQDRLSIMWDTPWQPIRESAALLRYWRADLAREALFWHVQQALSASNSKDIGLGFDCRVLYLRAQCAINIESPNDKLNSNLNLVARELAKVRDKGLPEEEFNALVAQKKLELQKLFAAYARADTDILMGQRMRSLQNQVVDIAPEQYQKLRQDFLNSLTVEMLNQDLRQQLSNDMALILLQPKGEPEFNMKALQAVWDQIMAPSTAAATTSVATDDVHPEVTDIPPAQ | 5.67 ± 0.23 | 6.56 ± 1.4 | 6.33 ± 0.55 |  | 6.16 ± 0.15 | 3.02 ± 0.35 | 6.42 ± 0.41 | 9.83 ± 0.8 | 6.08 ± 0.24 | 12.55 ± 0.063 | 6.3 ± 0.32 | 14.2 ± 0.33 |
| MKNVFKALTVLLTLFSLTGCGLKGPLYFPPADKNAPPPTKPVETQTQSTVPDKNDRATGDGPSQVNY [P0ADN6] | 5.56 ± 0.35 | 5.27 ± 1.1 | 6.91 ± 1.1 | 6.29 ± 0.95 | 6.35 ± 0.59 | 2.95 ± 0.47 | 5.25 ± 1.2 | > 16 | 6.03 ± 1.2 |  |  | 11.8 ± 0.15 |
| MSERLSITPLGPYIGAQISGADLTRPLSDNQFEQLYHAVLRHQVVFLRDQAITPQQQRALAQRFGELHIHPVYPHAEGVDEIIVLDTHNDNPPDNDNWHTDVTFIETPPAGAILAAKELPSTGGDTLWTSGIAAYEALSVPFRQLLSGLRAEHDFRKSFPEYKYRKTEEEHQRWREAVAKNPPLLHPVVRTHPVSGKQALFVNEGFTTRIVDVSEKESEALLSFLFAHITKPEFQVRWRWQPNDIAIWDNRVTQHYANADYLPQRRIMHRATILGDKPFYRAG | 4.38 ± 0.24 | 4.17 ± 3.1 | 2.39 ± 0.83 | 2.1 | 2.36 ± 0.22 | 2.88 ± 0.46 | 4.02 | 5.19 ± 0.73 | 1.58 | 2.31 ± 0.34 | 4.3 | 7.36 ± 0.57 |
| MLRFLNQCSQGRGAWLLMAFTALALELTALWFQHVMLLKPCVLCIYERCALFGVLGAALIGAIAPKTPLRYVAMVIWLYSAFRGVQLTYEHTMLQLYPSPFATCDFMVRFPEWLPLDKWVPQVFVASGDCAERQWDFLGLEMPQWLLGIFIAYLIVAVLVVISQPFKAKKRDLFGR [P0A6M2] |  | 6.09 |  | > 8 |  |  |  |  | 6.88 | 9.57 | 5.52 |  |
| MPLIIVVAGIALLLLLTIKIKLNTFVSLIIVSIAVAIASGMDLSKVVTSVESGLGGTLGHIGLIFGFGVMLGRLLADAGGAQRIALTMLNYFGKNKLDWAVVCSAFIVGIALFFEVGLILLVPILFAIAREAKISPMFMCVPMLSGLLVAHGFLPPHPGPTVIAREYGADVGLVLIYGIIVGIPTFILCGPVLNKFCQRIIPDAFKKEGNIASLGATRRFSESEMPGFGISFLTAMLPVILMAVVTIIQMTHAKSAADSGLFYNVILFLGNSTIAMLISLLFAIYTMGLGRGKTIPDLMDSCGKAIAGIAGLLLIIGGGGAFKQVLIDSGVGQYISTLVSGMDINPILMAWGVAAFLRICLGSATVAAISTAGLVIPLLAVHPNTNLALITLATGAGSCICSHVNDASFWMIKDFFGLTTKETLLSWTLMSTLLSISGLIFILLASLVL |  |  |  |  | 6.77 | 3.22 |  |  |  |  |  |  |
| MFILWYSASSTFGKDSDIVMGVRAQQKEKTRRSLVEAAFSQLSAERSFASLSLREVAREAGIAPTSFYRHFRDVDELGLTMVDESGLMLRQLMRQARQRIAKGGSVIRTSVSTFMEFIGNNPNAFRLLLRERSGTSAAFRAAVAREIQHFIAELADYLELENHMPRAFTEAQAEAMVTIVFSAGAEALDVGVEQRRQLEERLVLQLRMISKGAYYWYRREQEKTAIIPGNVKDE [P0ACU5] | 6.31 ± 0.35 | 5.81 ± 0.25 | 6.25 ± 0.1 |  | 5.957 ± 0.021 | 2.73 ± 0.18 | 5.97 ± 0.75 | 11.2 ± 2.1 | 5.71 ± 0.12 | 10.4 ± 1.6 | 5.31 ± 0.57 | 10.88 ± 0.052 |
